Data: patent US20160339092A1 (IMMATICS BIOTECHNOLOGIES, published 2016)

Target: T1, HLA-A*02:01 (human)
T1 construct: complexes captured on streptavidin plates and detected with anti-b2m; also called peptide-receptive MHC molecules
Test: UV-exchange MHC ELISA; ++ = yield >=20%
Source text: Candidate peptides for T cell based therapies according to the present invention were further tested for their MHC binding capacity (affinity). The individual peptide-MHC complexes were produced by UV-ligand exchange, where a UV-sensitive peptide is cleaved upon UV-irradiation, and exchanged with the peptide of interest as analyzed. Only peptide candidates that can effectively bind and stabilize the peptide-receptive MHC molecules prevent dissociation of the MHC complexes. To determine the yield of the exchange reaction, an ELISA was performed based on the detection of the light chain (β2m) of stabilized MHC complexes. The assay was performed as generally described in Rodenko et al. (Rodenko et al., 2006).
96 well MAXISorp plates (NUNC) were coated over night with 2 ug/ml streptavidin in PBS at room temperature, washed 4× and blocked for 1 h at 37° C. in 2% BSA containing blocking buffer. Refolded HLA-A*02:01/MLA-001 monomers served as standards, covering the range of 15-500 ng/ml. Peptide-MHC monomers of the UV-exchange reaction were diluted 100 fold in blocking buffer. Samples were incubated for 1 h at 37° C., washed four times, incubated with 2 ug/ml HRP conjugated anti-β2m for 1 h at 37° C., washed again and detected with TMB solution that is stopped with […]. Absorption was measured at 450 nm. […]

ALLNAILHSA [ALLNAILHSA (SEQ ID NO: 132)]
peptide exchange yield: 20 to 50%
